Tests used:
[1] = molecular target: cynomolgus monkey GLP-1R (cynomolgus monkey)
[2] = molecular target: human GLP-1R (glucagon-like peptide-1 receptor) (human) (UniProt P43220)
[3] = molecular target: mouse GLP-1R (mouse) (UniProt O35659)
[4] = molecular target: T1, human GIPR (glucose-dependent insulinotropic polypeptide receptor) (human) (UniProt P48546)
T1 sequence: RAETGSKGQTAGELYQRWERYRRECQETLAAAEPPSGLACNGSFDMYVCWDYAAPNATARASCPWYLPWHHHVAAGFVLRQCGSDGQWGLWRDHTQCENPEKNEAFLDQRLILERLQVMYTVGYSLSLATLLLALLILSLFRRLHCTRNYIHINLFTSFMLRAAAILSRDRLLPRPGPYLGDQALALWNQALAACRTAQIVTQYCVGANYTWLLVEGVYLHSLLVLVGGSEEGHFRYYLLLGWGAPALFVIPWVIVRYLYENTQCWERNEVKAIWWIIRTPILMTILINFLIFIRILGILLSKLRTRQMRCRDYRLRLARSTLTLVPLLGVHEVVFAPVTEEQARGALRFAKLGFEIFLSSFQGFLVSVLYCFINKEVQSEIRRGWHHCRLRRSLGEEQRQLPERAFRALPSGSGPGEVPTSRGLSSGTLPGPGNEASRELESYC

Sequence of AMG 133 (maridebart cafraglutide) (VH): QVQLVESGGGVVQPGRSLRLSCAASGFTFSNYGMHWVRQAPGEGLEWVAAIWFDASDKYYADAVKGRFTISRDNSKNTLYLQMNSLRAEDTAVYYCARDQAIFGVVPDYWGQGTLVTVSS
Sequence of AMG 133 (maridebart cafraglutide) (VL): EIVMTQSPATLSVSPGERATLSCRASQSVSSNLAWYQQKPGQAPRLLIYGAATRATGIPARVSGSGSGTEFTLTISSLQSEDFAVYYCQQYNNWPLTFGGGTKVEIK
Sequence of UniProt P43220 (P43220 24-463): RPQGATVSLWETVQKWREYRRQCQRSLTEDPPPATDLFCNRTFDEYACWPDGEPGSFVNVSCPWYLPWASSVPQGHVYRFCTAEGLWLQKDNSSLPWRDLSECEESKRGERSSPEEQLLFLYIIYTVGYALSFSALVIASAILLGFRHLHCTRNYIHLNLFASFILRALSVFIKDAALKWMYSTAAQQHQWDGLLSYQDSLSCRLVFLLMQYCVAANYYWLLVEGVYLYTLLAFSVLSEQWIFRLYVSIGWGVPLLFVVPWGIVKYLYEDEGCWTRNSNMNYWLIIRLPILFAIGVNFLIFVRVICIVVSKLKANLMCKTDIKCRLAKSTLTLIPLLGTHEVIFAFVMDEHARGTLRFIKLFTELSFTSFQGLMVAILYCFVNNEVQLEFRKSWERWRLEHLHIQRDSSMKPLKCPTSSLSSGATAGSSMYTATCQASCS
Sequence of UniProt O35659 (O35659 22-463): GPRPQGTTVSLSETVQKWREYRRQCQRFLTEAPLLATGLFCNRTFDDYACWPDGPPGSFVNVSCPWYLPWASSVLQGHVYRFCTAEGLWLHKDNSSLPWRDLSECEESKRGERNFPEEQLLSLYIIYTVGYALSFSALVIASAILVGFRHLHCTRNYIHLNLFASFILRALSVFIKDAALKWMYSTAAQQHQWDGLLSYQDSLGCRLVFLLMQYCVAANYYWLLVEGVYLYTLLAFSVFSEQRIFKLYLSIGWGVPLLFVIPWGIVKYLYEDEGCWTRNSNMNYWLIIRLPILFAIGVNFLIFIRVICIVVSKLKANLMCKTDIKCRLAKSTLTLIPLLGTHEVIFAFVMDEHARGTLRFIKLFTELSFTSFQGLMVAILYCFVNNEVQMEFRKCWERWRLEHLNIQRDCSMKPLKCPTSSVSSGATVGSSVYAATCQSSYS

| EC50 of cAMP accumulation in CHO-AM1D cells expressing cynomolgus monkey GLP-1R [1] | EC50 of cAMP accumulation in CHO-K1 cells expressing human GLP-1R [2] | EC50 of cAMP accumulation in CHO-K1 cells expressing mouse GLP-1R [3] | EC50 of cAMP accumulation in HEK 293T cells expressing human GIPR [4] | Substance |
| --- | --- | --- | --- | --- |
| 0.0057 nM | 0.0244 nM | 0.123 nM | – | AMG 133 (maridebart cafraglutide) |
| – | – | – | 0.0066 nM | Native GIP (glucose-dependent insulinotropic polypeptide) (from UniProt P09681 52-93) (ligand) |

— paper PMC10896721
